Measured values: publication PMC5876331, “RING tetramerization is required for nuclear body biogenesis and PML sumoylation” (Nature Communications, 2018)
“And” between values parts separate entries of the source, which are not always exact repeats. Equal values may be shown once.

How the values were obtained:
[1] = target: the molecule itself; assay: SEC-MALS; pooled gel filtration peaks of PML RING1-119 re-analysed on WTC-015S5 column, 40 μl injection, 0.5 ml min^-1, DAWN HELEOS-II MALS
[2] = target: the molecule itself; assay: AUC; sedimentation velocity, 200,000g, 25 °C, 20 mM Tris, 100 mM NaCl, pH 8.0, with/without 1 mM DTT; 1 mg ml^-1 (wild type also 5 mg ml^-1); SEDFIT c(s)
[3] = target: the molecule itself; assay: crystal structure; PML RING49-104 crystallised at 26 mg ml^-1, 500 mM ammonium sulfate, 1 M lithium sulfate, 100 mM sodium citrate, 4 °C; 1.6 Å, Zn SAD; 4 molecules per ASU

Protein	stoichiometry N [1]	stoichiometry N [2]	stoichiometry N [3]
PML RING1-119 (amino acids 1-119), wild type (domain or fragment, UniProt P29590 1-119, looked up, PML, amino acids 1-119 (extended RING); theoretical molecular weight 13.1 kDa; also called extended RING; long version of PML RING; not shown: His6, N-terminal, cleaved) MEPAPARSPRPQQDPARPQEPTMPPPETPSEGRQPSPSPSPTERAPASEEEFQFLRCQQCQAEAKCPKLLPCLHTLCSGCLEASGMQCPICQAPWPLGADTPALDNVFFESLQRRLSVY	4 and 2	–	–
PML RING49-104 domain (amino acids 49-104), wild type (domain or fragment, UniProt P29590 49-104, looked up, PML (promyelocytic leukemia protein), RING domain, amino acids 49-104; residues 51-97 visible in the electron density map; Two Zn ions per subunit; not shown: His6, N-terminal, cleaved) EEEFQFLRCQQCQAEAKCPKLLPCLHTLCSGCLEASGMQCPICQAPWPLGADTPAL	–	2	4
